From patent US6541002 (THOMAS JEFFERSON UNIVERSITY, dated 2003)

Target: T1, Vpr-Gal4DB chimeric protein (HIV-1, UniProt P04386 1-147; P12520 1-96)
T1 construct: also called Vpr-Gal4BD
Test: yeast two-hybrid, growth on histidine-deficient medium

B1: wild type Gal4AD (other)
chain: ANFNQSGNIADSSLSFTFTNSSNGPNLITTQTNSQALSQPIASSNVHDNFMNNEITASKIDDGNNSKPLSPGWTDQTAYNAFGITTGMFNTTTMDDVYNYLFDDEDTPPNPKKE
B1: no binding.
